As a reminder, the stoichiometry N is the number of molecules, sites or subunits per partner or assembly.

Results on two substances are retold here after publication PMC9297946.

This assay deals with extracellular domain (25-250) of the human EPO receptor EPOR (human) (UniProt P19235). The assay is described as follows: SEC + other: RP-HPLC-MS of the isolated complex after dissociation; proteins mixed in solution under dilute conditions (about 0.3 mg EPOR per mL); gel filtration over an analytical Superdex 75 column; complex peak analysed by non-reducing SDS-PAGE, then dissociated with 0.2 % TFA (1 h) and analysed by RP-HPLC-MS for the ratio of the two proteins. Background: Size exclusion chromatography separates by hydrodynamic size, large species first.

“EPO S (synthetic sialylated glycoform of human erythropoietin 1-166 with three alpha-2,6-sialylated biantennary N-glycans) (from UniProt P01588 28-193) (ligand)”: the stoichiometry N was 1 EPO:EPOR. Take “EPO A (synthetic asialo glycoform of human erythropoietin 1-166 with three biantennary N-glycans terminating with galactose) (from UniProt P01588 28-193) (ligand)”: the stoichiometry N is 1 EPO:EPOR.
